The values that follow come from US20220204580A1 (AstraZeneca / MedImmune, published 2022).

Numbered stars: 1 amine (or outer) side, 2 acyl side, 3 side chain; on linkers, the order of the positions; unused ones are H or OH. Bridge positions count the residues as written; N and C are the ends. Square brackets hold non-standard residues; d marks the D form. Side chains are listed from the residue outwards. Ends that are not written are not given here. * marks the point of attachment. C18 diacid = O=C(O)CCCCCCCCCCCCCCCCC(=O)*; γGlu = O=C(O)[C@H](CCC(=O)[*:2])N[*:1]; αMeF = C[C@](N)(Cc1ccccc1)C(=O)O; Aib = CC(C)(N)C(=O)O

Common to all, as to experiment: cell-based or functional assay
Assay [1] addresses T1, rat amylin receptor (calcitonin receptor co-expressed with receptor activity modifying protein, RAMP3) (rat, UniProt P32214 25-516; Q9JJ73 23-147).
T1 sequence (looked up) 1: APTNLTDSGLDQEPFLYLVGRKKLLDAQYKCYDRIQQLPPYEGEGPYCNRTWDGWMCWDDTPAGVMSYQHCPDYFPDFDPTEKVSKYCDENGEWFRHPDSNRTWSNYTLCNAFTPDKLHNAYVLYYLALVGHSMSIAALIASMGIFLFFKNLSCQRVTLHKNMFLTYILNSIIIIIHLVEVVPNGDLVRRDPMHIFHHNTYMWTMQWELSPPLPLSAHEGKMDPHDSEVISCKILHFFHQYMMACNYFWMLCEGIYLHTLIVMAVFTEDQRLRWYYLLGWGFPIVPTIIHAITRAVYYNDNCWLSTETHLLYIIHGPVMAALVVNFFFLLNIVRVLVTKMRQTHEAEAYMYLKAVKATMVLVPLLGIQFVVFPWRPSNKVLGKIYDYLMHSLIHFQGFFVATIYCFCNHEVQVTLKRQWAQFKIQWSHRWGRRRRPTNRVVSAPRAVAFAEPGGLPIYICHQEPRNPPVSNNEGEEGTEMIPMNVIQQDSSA
T1 sequence (looked up) 2: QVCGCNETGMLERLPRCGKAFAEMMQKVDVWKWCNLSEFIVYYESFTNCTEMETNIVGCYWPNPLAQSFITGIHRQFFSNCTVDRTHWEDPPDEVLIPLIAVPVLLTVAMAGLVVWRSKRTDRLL

For the next assay, the target named is T2, rat calcitonin receptor (rat, UniProt P32214 25-516).
T2 sequence (looked up): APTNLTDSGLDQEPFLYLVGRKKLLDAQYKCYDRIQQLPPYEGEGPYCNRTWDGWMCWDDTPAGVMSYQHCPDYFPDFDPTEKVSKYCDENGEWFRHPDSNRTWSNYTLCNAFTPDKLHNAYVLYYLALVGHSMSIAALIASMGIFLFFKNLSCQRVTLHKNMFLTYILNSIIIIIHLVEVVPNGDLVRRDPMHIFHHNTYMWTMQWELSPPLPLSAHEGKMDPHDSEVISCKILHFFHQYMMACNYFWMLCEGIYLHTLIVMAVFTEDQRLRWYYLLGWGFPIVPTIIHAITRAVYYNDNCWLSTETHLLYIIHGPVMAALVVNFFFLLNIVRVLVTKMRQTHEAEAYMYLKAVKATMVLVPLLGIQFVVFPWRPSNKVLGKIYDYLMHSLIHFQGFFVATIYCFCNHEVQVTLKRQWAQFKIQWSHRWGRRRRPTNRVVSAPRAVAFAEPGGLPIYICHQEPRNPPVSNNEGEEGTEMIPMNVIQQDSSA

Assay [2] addresses T3, human calcitonin receptor (human, UniProt P30988 25-474).
T3 sequence (looked up): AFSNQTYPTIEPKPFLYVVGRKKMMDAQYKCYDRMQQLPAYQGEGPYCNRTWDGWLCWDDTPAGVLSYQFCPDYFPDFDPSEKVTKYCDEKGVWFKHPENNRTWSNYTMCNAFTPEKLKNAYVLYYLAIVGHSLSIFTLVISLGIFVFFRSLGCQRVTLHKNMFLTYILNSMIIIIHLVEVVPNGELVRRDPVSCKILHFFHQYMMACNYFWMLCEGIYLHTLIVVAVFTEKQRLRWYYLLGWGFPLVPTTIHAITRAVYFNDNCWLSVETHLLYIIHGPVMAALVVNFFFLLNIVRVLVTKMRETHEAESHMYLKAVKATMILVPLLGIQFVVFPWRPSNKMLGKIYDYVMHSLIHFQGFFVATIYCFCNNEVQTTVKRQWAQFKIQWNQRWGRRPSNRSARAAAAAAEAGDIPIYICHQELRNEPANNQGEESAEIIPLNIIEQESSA

The target of assay [3] is T4, human amylin receptor (calcitonin receptor co-expressed with receptor activity modifying protein, RAMP3) (human, UniProt P30988 25-474; O60896 24-148).
T4 sequence (looked up) 1: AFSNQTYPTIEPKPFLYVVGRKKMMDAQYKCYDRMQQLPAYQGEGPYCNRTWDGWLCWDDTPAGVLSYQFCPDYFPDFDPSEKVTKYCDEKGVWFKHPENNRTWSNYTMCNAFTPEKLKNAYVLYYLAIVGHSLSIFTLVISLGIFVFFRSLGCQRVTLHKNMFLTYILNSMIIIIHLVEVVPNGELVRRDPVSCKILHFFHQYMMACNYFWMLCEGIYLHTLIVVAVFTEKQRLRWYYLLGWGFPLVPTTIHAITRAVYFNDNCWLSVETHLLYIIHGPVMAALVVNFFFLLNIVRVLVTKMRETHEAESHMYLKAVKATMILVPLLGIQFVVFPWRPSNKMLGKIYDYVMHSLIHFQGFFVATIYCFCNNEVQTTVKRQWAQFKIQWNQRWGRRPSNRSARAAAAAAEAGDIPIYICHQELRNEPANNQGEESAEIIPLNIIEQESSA
T4 sequence (looked up) 2: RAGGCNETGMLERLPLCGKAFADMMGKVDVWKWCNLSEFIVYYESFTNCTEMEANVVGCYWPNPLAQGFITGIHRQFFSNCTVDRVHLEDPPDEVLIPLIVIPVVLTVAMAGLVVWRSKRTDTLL

B1: Peptide 20 (SEQ ID NO: 20) (peptide)
peptide: K([γGlu-γGlu-C18 diacid])CNTATCATQRLANFLRHSSNN[αMeF]GPILPPTNVGSNTY-NH2
modifications: disulfide 2-7; N-terminus assumed
SMILES: CC[C@H](C)[C@H](NC(=O)[C@@H]1CCCN1C(=O)CNC(=O)[C@](C)(Cc1ccccc1)NC(=O)[C@H](CC(N)=O)NC(=O)[C@H](CC(N)=O)NC(=O)[C@H](CO)NC(=O)[C@H](CO)NC(=O)[C@H](Cc1c[nH]cn1)NC(=O)[C@H](CCCNC(=N)N)NC(=O)[C@H](CC(C)C)NC(=O)[C@H](Cc1ccccc1)NC(=O)[C@H](CC(N)=O)NC(=O)[C@H](C)NC(=O)[C@H](CC(C)C)NC(=O)[C@H](CCCNC(=N)N)NC(=O)[C@H](CCC(N)=O)NC(=O)[C@@H](NC(=O)[C@H](C)NC(=O)[C@@H]1CSSC[C@H](NC(=O)[C@@H](N)CCCCNC(=O)CC[C@H](NC(=O)CC[C@H](NC(=O)CCCCCCCCCCCCCCCCC(=O)O)C(=O)O)C(=O)O)C(=O)N[C@@H](CC(N)=O)C(=O)N[C@@H]([C@@H](C)O)C(=O)N[C@@H](C)C(=O)N[C@@H]([C@@H](C)O)C(=O)N1)[C@@H](C)O)C(=O)N[C@@H](CC(C)C)C(=O)N1CCC[C@H]1C(=O)N1CCC[C@H]1C(=O)N[C@H](C(=O)N[C@@H](CC(N)=O)C(=O)N[C@H](C(=O)NCC(=O)N[C@@H](CO)C(=O)N[C@@H](CC(N)=O)C(=O)N[C@H](C(=O)N[C@@H](Cc1ccc(O)cc1)C(N)=O)[C@@H](C)O)C(C)C)[C@@H](C)O
On to B1, for which the “EC50 (cAMP production)” value in assay [1] came out at 0.0104 nM; with rat calcitonin receptor, 1.85 nM; in assay [2] it was 4.59 nM; in assay [3], 0.174 nM. The “Ratio (EC50 hCTR / EC50 hAMYR3)” value in assay [3] amounted to 26.

B2: Peptide 24 (SEQ ID NO: 24) (peptide)
peptide: K([γGlu-γGlu-C18 diacid])CNTATCATQRLANFLVHSSNN[αMeF]GPILPPTRVGSNTY-NH2
modifications: disulfide 2-7; N-terminus assumed
SMILES: CC[C@H](C)[C@H](NC(=O)[C@@H]1CCCN1C(=O)CNC(=O)[C@](C)(Cc1ccccc1)NC(=O)[C@H](CC(N)=O)NC(=O)[C@H](CC(N)=O)NC(=O)[C@H](CO)NC(=O)[C@H](CO)NC(=O)[C@H](Cc1c[nH]cn1)NC(=O)[C@@H](NC(=O)[C@H](CC(C)C)NC(=O)[C@H](Cc1ccccc1)NC(=O)[C@H](CC(N)=O)NC(=O)[C@H](C)NC(=O)[C@H](CC(C)C)NC(=O)[C@H](CCCNC(=N)N)NC(=O)[C@H](CCC(N)=O)NC(=O)[C@@H](NC(=O)[C@H](C)NC(=O)[C@@H]1CSSC[C@H](NC(=O)[C@@H](N)CCCCNC(=O)CC[C@H](NC(=O)CC[C@H](NC(=O)CCCCCCCCCCCCCCCCC(=O)O)C(=O)O)C(=O)O)C(=O)N[C@@H](CC(N)=O)C(=O)N[C@@H]([C@@H](C)O)C(=O)N[C@@H](C)C(=O)N[C@@H]([C@@H](C)O)C(=O)N1)[C@@H](C)O)C(C)C)C(=O)N[C@@H](CC(C)C)C(=O)N1CCC[C@H]1C(=O)N1CCC[C@H]1C(=O)N[C@H](C(=O)N[C@@H](CCCNC(=N)N)C(=O)N[C@H](C(=O)NCC(=O)N[C@@H](CO)C(=O)N[C@@H](CC(N)=O)C(=O)N[C@H](C(=O)N[C@@H](Cc1ccc(O)cc1)C(N)=O)[C@@H](C)O)C(C)C)[C@@H](C)O
Take B2: the “EC50 (cAMP production)” value came out at 0.0177 nM in assay [1], 0.755 nM with rat calcitonin receptor, 1.86 nM in assay [2] and 0.127 nM in assay [3]. In assay [3], the “Ratio (EC50 hCTR / EC50 hAMYR3)” value was found to be 15.

B3: Peptide 149 (SEQ ID NO: 149) (peptide)
peptide: K([γGlu-C18 diacid])CNTATCATQRLANFL[Aib]HSSNNFGPILPPTNVGSNTY-NH2
modifications: disulfide 2-7; N-terminus assumed
SMILES: CC[C@H](C)[C@H](NC(=O)[C@@H]1CCCN1C(=O)CNC(=O)[C@H](Cc1ccccc1)NC(=O)[C@H](CC(N)=O)NC(=O)[C@H](CC(N)=O)NC(=O)[C@H](CO)NC(=O)[C@H](CO)NC(=O)[C@H](Cc1c[nH]cn1)NC(=O)C(C)(C)NC(=O)[C@H](CC(C)C)NC(=O)[C@H](Cc1ccccc1)NC(=O)[C@H](CC(N)=O)NC(=O)[C@H](C)NC(=O)[C@H](CC(C)C)NC(=O)[C@H](CCCNC(=N)N)NC(=O)[C@H](CCC(N)=O)NC(=O)[C@@H](NC(=O)[C@H](C)NC(=O)[C@@H]1CSSC[C@H](NC(=O)[C@@H](N)CCCCNC(=O)CC[C@H](NC(=O)CCCCCCCCCCCCCCCCC(=O)O)C(=O)O)C(=O)N[C@@H](CC(N)=O)C(=O)N[C@@H]([C@@H](C)O)C(=O)N[C@@H](C)C(=O)N[C@@H]([C@@H](C)O)C(=O)N1)[C@@H](C)O)C(=O)N[C@@H](CC(C)C)C(=O)N1CCC[C@H]1C(=O)N1CCC[C@H]1C(=O)N[C@H](C(=O)N[C@@H](CC(N)=O)C(=O)N[C@H](C(=O)NCC(=O)N[C@@H](CO)C(=O)N[C@@H](CC(N)=O)C(=O)N[C@H](C(=O)N[C@@H](Cc1ccc(O)cc1)C(N)=O)[C@@H](C)O)C(C)C)[C@@H](C)O
Take B3: the “EC50 (cAMP production)” value was determined as 0.0056 nM in assay [1], 0.522 nM with rat calcitonin receptor, 1.2 nM in assay [2] and 0.13 nM in assay [3]. In assay [3], the “Ratio (EC50 hCTR / EC50 hAMYR3)” value was 9.2.

Take K([γGlu-γGlu-C18 diacid])CNTATCATQRLANFLRHSSNN[αMeF]GPILPPTEVGSNTY-NH2 (disulfide 2-7) [Peptide 18 (SEQ ID NO: 18)]: the “EC50 (cAMP production)” value is 0.0165 nM in assay [1], 3.09 nM with rat calcitonin receptor, 4.69 nM in assay [2] and 0.319 nM in assay [3]. Also, the “Ratio (EC50 hCTR / EC50 hAMYR3)” value in assay [3] came to 15.
